Test results taken from paper PMC8595651.

Target: Fibrillar type I collagen (PureCol atelo-type I collagen, Advanced Biomatrix Cat# 5005) (UniProt P02453)
Assay: ELISA

UniProt P02453, sequence (P02453 162-1217, chain 1 of 2): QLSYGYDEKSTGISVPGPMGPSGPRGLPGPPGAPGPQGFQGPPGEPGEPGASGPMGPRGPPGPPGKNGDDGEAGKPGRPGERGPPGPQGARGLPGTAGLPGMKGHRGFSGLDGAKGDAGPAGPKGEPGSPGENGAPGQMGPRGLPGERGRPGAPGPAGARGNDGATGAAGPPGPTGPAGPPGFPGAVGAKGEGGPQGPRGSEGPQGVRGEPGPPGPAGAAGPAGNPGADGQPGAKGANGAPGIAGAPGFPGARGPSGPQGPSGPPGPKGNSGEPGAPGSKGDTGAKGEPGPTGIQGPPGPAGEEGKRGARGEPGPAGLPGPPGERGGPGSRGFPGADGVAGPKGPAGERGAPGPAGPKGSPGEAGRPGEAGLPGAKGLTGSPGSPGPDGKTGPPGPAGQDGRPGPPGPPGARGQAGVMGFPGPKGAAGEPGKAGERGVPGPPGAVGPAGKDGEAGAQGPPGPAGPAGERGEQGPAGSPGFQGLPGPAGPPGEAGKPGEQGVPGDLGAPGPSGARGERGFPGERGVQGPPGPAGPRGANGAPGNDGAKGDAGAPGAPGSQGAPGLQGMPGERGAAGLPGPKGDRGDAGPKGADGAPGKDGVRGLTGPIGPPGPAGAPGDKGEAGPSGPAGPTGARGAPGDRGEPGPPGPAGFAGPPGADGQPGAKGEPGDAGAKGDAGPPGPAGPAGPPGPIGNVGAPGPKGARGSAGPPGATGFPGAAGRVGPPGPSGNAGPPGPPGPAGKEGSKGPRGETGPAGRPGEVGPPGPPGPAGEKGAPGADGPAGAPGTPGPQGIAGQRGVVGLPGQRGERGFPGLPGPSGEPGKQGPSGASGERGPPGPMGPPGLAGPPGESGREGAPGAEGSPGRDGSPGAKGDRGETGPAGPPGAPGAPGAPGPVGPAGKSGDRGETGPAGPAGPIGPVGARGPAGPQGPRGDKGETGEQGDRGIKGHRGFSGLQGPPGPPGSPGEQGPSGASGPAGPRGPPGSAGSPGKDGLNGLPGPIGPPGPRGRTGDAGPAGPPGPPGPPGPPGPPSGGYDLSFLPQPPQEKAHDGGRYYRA
UniProt P02453, sequence (P02465 80-1117, chain 2 of 2, further chain): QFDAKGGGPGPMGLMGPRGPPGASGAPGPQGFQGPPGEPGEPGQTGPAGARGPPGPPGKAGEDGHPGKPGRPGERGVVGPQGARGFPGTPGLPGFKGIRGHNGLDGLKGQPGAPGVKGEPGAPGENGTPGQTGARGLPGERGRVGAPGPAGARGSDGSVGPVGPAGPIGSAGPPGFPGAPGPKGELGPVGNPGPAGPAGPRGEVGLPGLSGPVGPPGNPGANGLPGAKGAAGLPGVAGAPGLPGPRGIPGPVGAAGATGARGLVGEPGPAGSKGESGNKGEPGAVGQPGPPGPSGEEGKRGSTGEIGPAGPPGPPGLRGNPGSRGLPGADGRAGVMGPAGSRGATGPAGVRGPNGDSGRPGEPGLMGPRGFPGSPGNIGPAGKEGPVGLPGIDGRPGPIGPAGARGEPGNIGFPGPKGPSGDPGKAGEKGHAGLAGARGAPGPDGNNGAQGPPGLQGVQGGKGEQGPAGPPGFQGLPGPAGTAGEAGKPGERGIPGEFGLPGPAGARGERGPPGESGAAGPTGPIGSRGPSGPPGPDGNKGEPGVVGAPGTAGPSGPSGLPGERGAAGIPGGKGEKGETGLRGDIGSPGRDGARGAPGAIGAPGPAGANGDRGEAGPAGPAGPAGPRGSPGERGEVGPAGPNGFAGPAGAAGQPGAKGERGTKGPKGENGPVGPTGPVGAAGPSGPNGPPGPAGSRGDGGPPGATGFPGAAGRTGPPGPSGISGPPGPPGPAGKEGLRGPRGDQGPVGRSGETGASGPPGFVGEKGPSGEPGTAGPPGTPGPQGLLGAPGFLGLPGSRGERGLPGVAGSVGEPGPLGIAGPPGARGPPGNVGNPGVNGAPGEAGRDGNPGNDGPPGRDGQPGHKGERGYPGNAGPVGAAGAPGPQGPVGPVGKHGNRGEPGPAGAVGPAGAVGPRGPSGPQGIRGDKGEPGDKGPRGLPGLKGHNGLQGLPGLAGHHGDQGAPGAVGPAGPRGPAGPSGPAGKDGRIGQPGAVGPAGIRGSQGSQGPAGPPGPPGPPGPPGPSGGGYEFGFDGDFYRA

binding relative to that of WISP1 at equal concentrations: 75%
Substance: WISP1ΔCT (form of WISP1 lacking a CT-domain), overexpressed in 4T1 cells (conditioned medium) (domain or fragment)
